The target in experiment [1] is T1, SARS-CoV-2 Wuhan-Hu-1 RBD (SARS-CoV-2 Wuhan-Hu-1, UniProt P0DTC2). In words: BLI. The note with it: both partners purified.
Experiment [2] addresses T1, SARS-CoV-2 Wuhan-Hu-1 RBD. In words: ELISA. The note with it: both partners purified.

B1: V065 (antibody, V domains shown)
VH: QVQLVQSGAEVKKPGASVKVSCKASGYTFTSYGISWVRQAPGQGLEWMGWINTDNGNTKNAQKVQGRVTMTTDTSTSTAYMELRSLRSDDTAVYYCARGGTVGAPPIEYWGQGTLVTVSS
VL: QSALTQPASVSGSPGQSITFSCTGTSSDVGGYNYVSWYQQYPGKAPKLLIYDVTNRPSGVSDRFSGSKSGNTASLTIFGLQAEDEADYYCSSFTSSNTRVFGTGTKVTVL
notes: IgG; donor BRA15
With B1, in experiment [1], the binding result is “no binding (tested: 100 µg/ml RBD)”.

B2: V047 (antibody, V domains shown)
VH: EVQLVESGGGLVQPGGSLRLSCAASGFTFSSYWMSWVRQAPGKGLEWVANIKQDGSEKYYVDSVKGRFTISRDNAKNSLYLQVNSLRAEDTAVYYCARGQSRQYSSSWYGPAPVVDYFDYWGQGTLVTVSS
VL: QSVLTQPPSASGTPGQRVTISCSGSSSNFGSNYVYWYQQLPGTAPKLLIYRNKQRPSGVPDRFSGSKSGTSASLAISGLRSEDEADYYCAAWDDSLSVLWVFGGGTKLTVL
notes: IgG; donor BRA15
B2: the binding result in experiment [1] is given as “no binding (tested: 100 µg/ml RBD)”.

B3: V031 (antibody, V domains shown)
VH: QVQLVESGGGVVQPGRSLRLSCAASGFTFSSYGMHWVRQAPGKGLEWVAVISYDGSNKYYADSVKGRFAFSRDNSKNTLYLQMNSLRAEDTAVYYCAKGGYSYAYPRYYFDYWGQGTLVTVSS
VL: DIQMTQSPSSLSASVGDRVTITCQASQDISNYLNWYQQKPGKAPKLLIYDASNLETGVPSRFSGSGSGTDFTFTISSLQPEDIATYYCQQHDNLPITFGQGTRLEIK
notes: IgG; donor BRA14; source: recombinant monoclonal IgG, produced and purified as previously described
Consider B3, for which the affinity in experiment [1], expressed as Kd, was 9.39 nM. In other words, the single-digit nanomolar range.

B4: V021 (antibody, V domains shown)
VH: QVQLQESGPGLVKPSQTLSLTCTVSGGSISSGSYYWSWIRQPVGKGLEWIGRIYTSGSTNYNPSLKSRVTISVDTSKNQFSLELSSVTAADRAVYYCARESSPASIPVRGVIWWFDPWGQGTLVTVSS
VL: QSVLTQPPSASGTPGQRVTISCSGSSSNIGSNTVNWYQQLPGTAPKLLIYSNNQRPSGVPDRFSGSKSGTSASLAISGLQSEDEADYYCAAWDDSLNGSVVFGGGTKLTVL
notes: IgG; donor BRA13
Turning to B4, in experiment [2], the binding result is reported as “no binding”.

B5: V052 (antibody, V domains shown)
VH: EVQLVESGGGLVQPGGSLRLSCAASGFTVSSKYMNWVRQAPGKGLEWVSVIYIGGSTDYADSVKGRFTISRDNSKNTLYLQMNSLRVEDTAVYYCARDGWDYELVFWGQGTLVTVSS
VL: DIQMTQSPSSLSASVGDRVTITCRASQGIRNDLGWYQQKPGKAPKRLIYAASSLQSGVPSRFSGSGSGTEFTLTISSLQPEDFATYYCLQHNSYPRWTFGQGTKVEIK
notes: IgG; donor BRA15
For B5, in experiment [1], the binding result is “no binding (tested: 100 µg/ml RBD)”.

For the origin of these results see paper PMC9270183 (The Journal of Experimental Medicine, 2022).
